Experimental data taken from article PMC12416549 (2024).
Changes are numbered by the printed parent chain. Names and notes keep the numbering of the source.

T1: TNFR1 (Homo sapiens, UniProt P19438)
T1 chain: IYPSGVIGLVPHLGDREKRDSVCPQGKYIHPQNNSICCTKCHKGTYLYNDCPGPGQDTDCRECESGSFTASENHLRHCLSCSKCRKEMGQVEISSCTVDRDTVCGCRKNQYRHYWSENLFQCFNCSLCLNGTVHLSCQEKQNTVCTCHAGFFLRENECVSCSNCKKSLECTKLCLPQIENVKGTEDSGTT

B1: A87M (designed binder)
chain: MTLQELLREEALRRAEAEAFRYALELLAEKFPEQKEYLLDLAEEIESQIRSLSGVDVEDVRKFLDKEWAWVKELLAEHPAELAEVEMARAARLAELRAEVEAKVAA
B2: L82S (designed binder)
chain: B1 chain with L82S, M87A
B3: L12S (designed binder)
chain: B1 chain with L12S, M87A
B4: E5D (designed binder)
chain: B1 chain with E5D, M87A
B5: A19K (designed binder)
chain: B1 chain with A19K, M87A
B6: R13C (designed binder)
chain: B1 chain with R13C, M87A
B7: M1I (designed binder)
chain: B1 chain with M1I, M87A
B8: I49E (designed binder)
chain: B1 chain with I49E, M87A
B9: E36Y (designed binder)
chain: B1 chain with E36Y, M87A
B10: K30A (designed binder)
chain: B1 chain with K30A, M87A
B11: F63P (designed binder)
chain: B1 chain with F63P, M87A
B12: A15I (designed binder)
chain: B1 chain with A15I, M87A
B13: E81T (designed binder)
chain: B1 chain with E81T, M87A
B14: E58Y (designed binder)
chain: B1 chain with E58Y, M87A
B15: L74I (designed binder)
chain: B1 chain with L74I, M87A
B16: A102K (designed binder)
chain: B1 chain with M87A, A102K
B17: E99N (designed binder)
chain: B1 chain with M87A, E99N
B18: E84N (designed binder)
chain: B1 chain with E84N, M87A
B19: A88K (designed binder)
chain: B1 chain with M87A, A88K
B20: E81K (designed binder)
chain: B1 chain with E81K, M87A
B21: A15W (designed binder)
chain: B1 chain with A15W, M87A
B22: A69M (designed binder)
chain: B1 chain with A69M, M87A
B23: R50V (designed binder)
chain: B1 chain with R50V, M87A
B24: L52E (designed binder)
chain: B1 chain with L52E, M87A
B25: E5Q (designed binder)
chain: B1 chain with E5Q, M87A
B26: I49A (designed binder)
chain: B1 chain with I49A, M87A
B27: I49C (designed binder)
chain: B1 chain with I49C, M87A
B28: L96M (designed binder)
chain: B1 chain with M87A, L96M
B29: F20H (designed binder)
chain: B1 chain with F20H, M87A
B30: E44T (designed binder)
chain: B1 chain with E44T, M87A
B31: L93R (designed binder)
chain: B1 chain with M87A, L93R
B32: L41E (designed binder)
chain: B1 chain with L41E, M87A
B33: A90S (designed binder)
chain: B1 chain with M87A, A90S
B34: L24M (designed binder)
chain: B1 chain with L24M, M87A
B35: T2G (designed binder)
chain: B1 chain with T2G, M87A
B36: A15N (designed binder)
chain: B1 chain with A15N, M87A
B37: L41C (designed binder)
chain: B1 chain with L41C, M87A
B38: F63Q (designed binder)
chain: B1 chain with F63Q, M87A
B39: I45D (designed binder)
chain: B1 chain with I45D, M87A
B40: K103N (designed binder)
chain: B1 chain with M87A, K103N
B41: K35Y (designed binder)
chain: B1 chain with K35Y, M87A
B42: L27Q (designed binder)
chain: B1 chain with L27Q, M87A
B43: L64R (designed binder)
chain: B1 chain with L64R, M87A
B44: L75V (designed binder)
chain: B1 chain with L75V, M87A
B45: K30T (designed binder)
chain: B1 chain with K30T, M87A
B46: L7F (designed binder)
chain: B1 chain with L7F, M87A
B47: L7D (designed binder)
chain: B1 chain with L7D, M87A
B48: E58C (designed binder)
chain: B1 chain with E58C, M87A
B49: L24H (designed binder)
chain: B1 chain with L24H, M87A
B50: E43F (designed binder)
chain: B1 chain with E43F, M87A
B51: L96G (designed binder)
chain: B1 chain with M87A, L96G
B52: A90Q (designed binder)
chain: B1 chain with M87A, A90Q
B53: A88P (designed binder)
chain: B1 chain with M87A, A88P
B54: F63G (designed binder)
chain: B1 chain with F63G, M87A
B55: E5Y (designed binder)
chain: B1 chain with E5Y, M87A
B56: V55F (designed binder)
chain: B1 chain with V55F, M87A
B57: L38A (designed binder)
chain: B1 chain with L38A, M87A
B58: A102N (designed binder)
chain: B1 chain with M87A, A102N
B59: A42Y (designed binder)
chain: B1 chain with A42Y, M87A

Target: T1, TNFR1
Experiment: yeast display SC50

Row | Binder | apparent Kd (screen) [nM]
1 | B1 | 0.49
2 | B2 | 1.54
3 | B3 | 1.16
4 | B4 | 0.49
5 | B5 | 10.4
6 | B6 | 0.539
7 | B7 | 0.49
8 | B8 | 2.48
9 | B9 | 0.539
10 | B10 | 1.05
11 | B11 | 2.48
12 | B12 | 0.593
13 | B13 | 0.539
14 | B14 | 0.539
15 | B15 | 2.73
16 | B16 | 0.539
17 | B17 | 0.718
18 | B18 | 0.869
19 | B19 | 0.539
20 | B20 | 0.539

Row | Binder | apparent Kd (screen) [nM]
21 | B21 | 0.593
22 | B22 | 0.79
23 | B23 | 1.4
24 | B24 | 24.4
25 | B25 | 0.49
26 | B26 | 2.73
27 | B27 | 2.48
28 | B28 | 0.718
29 | B29 | 0.49
30 | B30 | 9.41
31 | B31 | 0.869
32 | B32 | 2.25
33 | B33 | 0.49
34 | B34 | 0.718
35 | B35 | 1.16
36 | B36 | 0.653
37 | B37 | 2.48
38 | B38 | 2.73
39 | B39 | 1.54
40 | B40 | 0.49

Row | Binder | apparent Kd (screen) [nM]
41 | B41 | 0.446
42 | B42 | 0.446
43 | B43 | 5.31
44 | B44 | 0.593
45 | B45 | 0.653
46 | B46 | 7.07
47 | B47 | 0.79
48 | B48 | 0.653
49 | B49 | 1.54
50 | B50 | 0.653
51 | B51 | 2.48
52 | B52 | 0.593
53 | B53 | 2.05
54 | B54 | 0.869
55 | B55 | 0.718
56 | B56 | 0.869
57 | B57 | 12.5
58 | B58 | 0.539
59 | B59 | 11.4
